According to publication PMC11220700, “Activation and Purification of ß‐Glucocerebrosidase by Exploiting its Transporter LIMP‐2 – Implications for Novel Treatment Strategies in Gaucher's and Parkinson's Disease” (Advanced Science, 2024):
pKd: −log10 of the molar value.

Target: imiglucerase/Cerezyme (recombinant GCase, Sanofi Genzyme) (Homo sapiens) (UniProt P04062)
Experiment: MST
Conditions: Fc fusion

Chain of imiglucerase/Cerezyme (recombinant GCase, Sanofi Genzyme) (Homo sapiens) (P04062 other isoform, or with tags, fused parts or gaps): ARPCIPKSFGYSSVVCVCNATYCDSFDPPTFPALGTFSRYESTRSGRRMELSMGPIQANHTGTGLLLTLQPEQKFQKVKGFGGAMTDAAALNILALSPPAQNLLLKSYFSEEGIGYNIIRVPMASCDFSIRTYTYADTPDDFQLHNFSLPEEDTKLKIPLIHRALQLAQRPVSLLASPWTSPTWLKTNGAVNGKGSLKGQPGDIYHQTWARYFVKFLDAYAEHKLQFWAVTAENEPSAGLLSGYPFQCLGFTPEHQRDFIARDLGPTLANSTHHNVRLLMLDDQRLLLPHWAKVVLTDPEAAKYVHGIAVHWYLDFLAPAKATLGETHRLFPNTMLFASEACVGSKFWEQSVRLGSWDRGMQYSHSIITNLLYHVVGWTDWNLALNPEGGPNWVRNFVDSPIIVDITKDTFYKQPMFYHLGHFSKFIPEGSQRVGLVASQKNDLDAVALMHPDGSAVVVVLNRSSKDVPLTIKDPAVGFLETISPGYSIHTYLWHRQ
Chain of sLIMP‐2‐FC (Sino Biological #11063‐H03H) (Q14108 27-432): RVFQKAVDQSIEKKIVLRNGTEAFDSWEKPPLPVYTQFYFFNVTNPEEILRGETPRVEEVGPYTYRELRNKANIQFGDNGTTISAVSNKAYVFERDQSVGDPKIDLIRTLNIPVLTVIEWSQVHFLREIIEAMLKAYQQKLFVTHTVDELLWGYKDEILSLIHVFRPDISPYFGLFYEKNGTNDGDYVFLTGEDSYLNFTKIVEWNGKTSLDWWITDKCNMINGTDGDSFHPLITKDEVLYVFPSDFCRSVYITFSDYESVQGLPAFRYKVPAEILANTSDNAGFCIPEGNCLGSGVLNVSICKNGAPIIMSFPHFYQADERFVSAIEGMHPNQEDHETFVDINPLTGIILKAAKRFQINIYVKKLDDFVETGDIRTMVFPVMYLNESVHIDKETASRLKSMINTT

- pKd: 5.86
Substance: sLIMP‐2‐FC (Sino Biological #11063‐H03H)
